# “Also recorded” adds a separate entry of the source.
# B1: neutrophil elastase (protein, listed as Homo sapiens)
# chain: MTLGRRLACLFLACVLPALLLGGTALASEIVGGRRARPHAWPFMVSLQLRGGHFCGATLIAPNFVMSAAHCVANVNVRAVRVVLGAHNLSRREPTRQVFAVQRIFENGYDPVNLLNDIVILQLNGSATINANVQVAQLPAQGRRLGNGVQCLAMGWGLLGRNRGIASVLQELNVTVVTSLCRRSNVCTLVRGRQAGVCFGDSGSPLVCNGLIHGIASFVRGGCASGLYPDAFAPVAQFVNWIDSIIQRSEDNPCPHPRDPDPASRTH
# notes: purified native ELANE
# Assays:
# CD95 [1] = assay: Recombinant CD95 degradation, SDS-PAGE and coomassie blue; assay type: biochemical, human; conditions: ELANE 0.05 μg, 1 μg recombinant protein, 2 hrs at 37° C.
# Protocol: ELANE lowers CD95 levels in cancer cells and reduced CD95 levels are associated with apoptosis. (FIG. 8A) Recombinant proteins (1 μg) corresponding to full length CD95 (FL-CD95), N-terminal domain of CD95 (amino acids 1-173; N-CD95), or C-terminal domain of CD95 (amino acids 157-320; C-CD95) were inbuated with ELANE (0.05 μg) or vehicle (Veh) for 2 hrs at 37° C. Degradation was assessed by SDS-PAGE followed by coomassie blue staining. […] (FIG. 8C) Cancer cells were treated with ELANE (50 nM) for 1 hr, fixed in 10% formalin, and stained with N- or C-terminal specific anti-CD95 antibodies (green). Hoechst 33342 solution was used for nuclear staining (blue). Images were taken under 40×.
# ELANE selectively cleaves the C-terminal domain of CD95. […] Degradation was assessed by SDS-PAGE followed by staining with coomassie blue. […] Mel888 cancer cells were treated with ELANE (50 nM) for various times, and CD95 degradation was assessed by western blot analysis with a C-terminal specific anti-CD95 antibody.
# Other serine proteases cleave the C-terminal domain of CD95, and the ability to cleave the C-terminal domain is associated with cancer cell killing. […] Degradation was assessed by SDS-PAGE followed by coomassie blue staining. […] Cell viability was assessed by Calcein AM staining.
# CD95 [2] = assay: CD95 immunoreactivity and ELANE uptake in non-cancer cells; assay type: cell-based
# Protocol: Non-cancer cells were treated with ELANE (50 nM) for 1 hr, fixed in 10% formalin, and stained with N- or C-terminal specific anti-CD95 antibodies. Hoechst 33342 solution was used for nuclear staining. Images were taken under 40×. […] Non-cancer cells were treated with ELANE (100 nM) in the presence or absence of a broad endocytosis inhibitor Dynasore (80 μM) for 30 mins. ELANE catalytic activity in cell lysates was assessed using a chromogenic substrate assay.
# tumors = assay: Tumor apoptosis markers and CD95 staining after intratumoral delivery; assay type: in vivo, mice
# Protocol: (FIG. 16A) MDA-MB-231, A549, or MEL888 (xenograft model) cells were injected into athymic nude mice; M1 or 4195 tumors (TNBC PDX models) were propagated in SCID mice; and E0771, LLC1, or B16F10 cells (syngeneic models) were injected into C57BL/6 mice. Once tumors reached ˜100 mm^3, ELANE (11.6 μg), or PMSF-ELANE (11.6 μg) were delivered intratumorally once/day for 5 days. Tumors were isolated on day 6, formalin fixed, and examined by immunohistochemistry or immunofluorescence staining for TUNEL, cleaved-PARP (cPARP), and cleaved CASP3 (cCASP3). Images were taken under 40×. (FIG. 16B) Tumor sections were stained with N-terminal (N-CD95) and C-terminal (C-CD95) specific anti-CD95 antibodies, followed by secondary antibody staining (Alex fluor 488 and 594 for C-CD95 and N-CD95 respectively). Fluorescence intensity quantification was performed on 3-4 areas/mouse.
# [3] = Side effects in healthy non-tumor-bearing mice; assay type: in vivo, C57BL/6 mice; conditions: mammary fat pad, once a day for 5 consecutive days
# Protocol: Human serum albumin (HSA; 11.6 μg)) or ELANE (11.6 μg) was injected into the mammary fat pad of healthy non-tumor-bearing C57BL/6 mice once a day for 5 consecutive days, and side effects were monitored. (a) Immunohistochemistry staining for apoptosis markers (TUNEL, cleaved CASP3 (c-CASP3), cleaved PARP (c-PARP)) 2 days after the final injection. (b) Delta body weight. (c) Spleen weight. (c) Blood ALT activity levels (a marker of liver function).
# 4 μM human albumin (Ctrl) or 4 μM ELANE was injected into the mammary fat pad of healthy non-tumor-bearing C57BL/6 mice once a day for 5 consecutive days, and side effects were monitored. Body weight, spleen weight, and blood ALT activity levels (a marker of liver function). Immunohistochemistry staining for apoptosis markers (cleaved CASP3 (c-CASP3), cleaved PARP (c-PARP)) 2 days after the final injection. Quantification of CD8+ effector cytotoxic T-cells (defined as CD3^+CD8^+CD62L^LOCD44^HI) in the blood 2 days after the final injection.
# E0771 cancer cells = assay: E0771 tumors in Rag2-/- versus wild type mice; assay type: in vivo, C57BL/6 mice; conditions: 11.6 μg intratumorally once/day for 5 days
# Protocol: The inventors therefore explored whether ELANE-mediated cancer cell killing could positively influence the immune cells in the tumor. Rag2^−/− mice in C57BL/6 background (no adaptive immunity) and wild type (wt) C57BL/6 mice were both ordered from the Jackson laboratory. E0771 cancer cells were injected into both mouse models. Once tumors reached ˜100 mm^3. ELANE (11.6 μg) or HAS (11.6 μg) were delivered intratumorally once/day for 5 days. Tumor volume was assessed by calipers. Kaplan-Meier curve was plotted and the logrank test (Mentel-Cox method) was used for mouse survival analysis. End point of survival is defined as tumor volume >1000 mm^3.
# Adaptive immune cells contribute to ELANE's therapeutic efficacy. Rag2-deficient (Rag2−/−) mice on the C57BL/6 background (no adaptive immunity) and wild type (wt) C57BL/6 mice were injected with E0771 cancer cells. Once tumors reached ˜100 mm^3. ELANE (11.6 μg) or HSA (11.6 μg) were delivered intra-tumorally once/day for 5 days. (FIG. 18A) Tumor volume was assessed by calipers. (FIG. 18B) Kaplan-Meier curve was plotted and the logrank test (Mentel-Cox method) was used for survival analysis. End point of survival is defined as tumor volume >1000 mm^3.
molecule,measurement,setting,value
B1,cleavage of CD95 domains,CD95 [1],preferentially cleaves the C-terminal domain of CD95
same,CD95 immunoreactivity of non-cancer cells,"CD95 [2]; 50 nM, 1 hr",loss of immunoreactivity with a C-terminal specific antibody
same,uptake by non-cancer cells,"CD95 [2]; 100 nM, 30 mins",internalized by non-cancer cells
same,C-CD95 levels in tumors,"tumors; 11.6 μg intratumorally once/day for 5 days, day 6",attenuates C-CD95 levels in vivo
same,apoptosis in tumors,"tumors; intratumoral delivery, mouse cancer models",induces cancer cell apoptosis; also recorded: induced widespread apoptosis
same,"side effects (body weight, spleen weight, blood ALT, apoptosis markers)",[3],does not produce evident side-effects
same,efficacy in immune competent versus adaptive immunity deficient mice,E0771 cancer cells,more efficacious than adaptive immunity deficient mice

# — patent US12564623B2, “Methods and compositions for treating cancer” (The University of Chicago, priority 2017, dated 2026)
